± gives the uncertainty stated by the source.
B1: Protein maelstrom homolog, residues 3 to 71; numbered along this chain, Q96JY0 (parent)
chain: NRKASRNAYYFFVQEKIPELRRRGLPVARVADAIPYCSSDWALLREEEKEKYAEMAREWRAAQGKDPGP

Variants of: B1
Test: abundance fitness (aPCA) (normalised: wild type 0, dead -1); higher = more abundant; growth selection in yeast, the domain comes from the species named
Details: Homo sapiens

Row | Variant | abundance fitness
1 | NRKASRNAYYFFVQEKIPELRRRGLPVARVADAIPYCSSDWALLREEEKEKYAEMARYWRAAQGKDPGP [E58Y] | -0.972 ± 0.39
2 | NRKASRNAYYFFVQEKIPELRRRGLPVARVADAIPYCSSDWALLREEEKEKYAEMARFWRAAQGKDPGP [E58F] | -0.319 ± 0.19
3 | NRKASRNAYYFFVQEKIPELRRRGLPVARVADAIPYCSSDWALLREEEKEKYAEMARAWRAAQGKDPGP [E58A] | -0.086 ± 0.071
4 | NRKASRNAYYFFVQEKIPELRRRGLPVARVADAIPYCSSDWALLREEEKEKYAEMARRWRAAQGKDPGP [E58R] | -0.189 ± 0.057
5 | NRKASRNAYYFFVQEKIPELRRRGLPVARVADAIPYCSSDWALLREEEKEKYAEMARVWRAAQGKDPGP [E58V] | -0.256 ± 0.1
6 | NRKASRNAYYFFVQEKIPELRRRGLPVARVADAIPYCSSDWALLREEEKEKYAEMARCWRAAQGKDPGP [E58C] | -0.245 ± 0.13
7 | NRKASRNAYYFFVQEKIPELRRRGLPVARVADAIPYCSSDWALLREEEKEKYAEMARQWRAAQGKDPGP [E58Q] | -0.17 ± 0.1
8 | NRKASRNAYYFFVQEKIPELRRRGLPVARVADAIPYCSSDWALLREEEKEKYAEMARPWRAAQGKDPGP [E58P] | -0.521 ± 0.16
9 | NRKASRNAYYFFVQEKIPELRRRGLPVARVADAIPYCSSDWALLREEEKEKYAEMARWWRAAQGKDPGP [E58W] | -0.523 ± 0.12
10 | NRKASRNAYYFFVQEKIPELRRRGLPVARVADAIPYCSSDWALLREEEKEKYAEMARLWRAAQGKDPGP [E58L] | -0.165 ± 0.071
11 | NRKASRNAYYFFVQEKIPELRRRGLPVARVADAIPYCSSDWALLREEEKEKYAEMARMWRAAQGKDPGP [E58M] | -0.594 ± 0.17
12 | NRKASRNAYYFFVQEKIPELRRRGLPVARVADAIPYCSSDWALLREEEKEKYAEMARDWRAAQGKDPGP [E58D] | -0.09 ± 0.26
13 | NRKASRNAYYFFVQEKIPELRRRGLPVARVADAIPYCSSDWALLREEEKEKYAEMARKWRAAQGKDPGP [E58K] | -0.014 ± 0.1
14 | NRKASRNAYYFFVQEKIPELRRRGLPVARVADAIPYCSSDWALLREEEKEKYAEMARHWRAAQGKDPGP [E58H] | 0.246 ± 0.18
15 | NRKASRNAYYFFVQEKIPELRRRGLPVARVADAIPYCSSDWALLREEEKEKYAEMARSWRAAQGKDPGP [E58S] | -0.24 ± 0.097
16 | NRKASRNAYYFFVQEKIPELRRRGLPVARVADAIPYCSSDWALLREEEKEKYAEMARIWRAAQGKDPGP [E58I] | -0.279 ± 0.14
17 | NRKASRNAYYFFVQEKIPELRRRGLPVARVADAIPYCSSDWALLREEEKEKYAEMARGWRAAQGKDPGP [E58G] | -0.082 ± 0.063
18 | NRKASRNAYYFFVQEKIPELRRRGLPVARVADAIPYCSSDWALLREEEKEKYAEMARTWRAAQGKDPGP [E58T] | -0.392 ± 0.11
19 | NRKASRNAYYFFVQEKIPELRRRGLPVARVADAIPYCSSDWALLREEEKEKYAEMAREWTAAQGKDPGP [R60T] | 0.322 ± 0.24
20 | NRKASRNAYYFFVQEKIPELRRRGLPVARVADAIPYCSSDWALLREEEKEKYAEMAVEWRAAQGKDPGP [R57V] | -0.093 ± 0.099

Row | Variant | abundance fitness
21 | NRKASRNAYYFFVQEKIPELRRRGLPVARVADAIPYCSSDWALLREEEKEKYAEMAQEWRAAQGKDPGP [R57Q] | -0.104 ± 0.1
22 | NRKASRNAYYFFVQEKIPELRRRGLPVARVADAIPYCSSDWALLREEEKEKYAEMASEWRAAQGKDPGP [R57S] | -0.034 ± 0.09
23 | NRKASRNAYYFFVQEKIPELRRRGLPVARVADAIPYCSSDWALLREEEKEKYAEMAMEWRAAQGKDPGP [R57M] | -0.01 ± 0.11
24 | NRKASRNAYYFFVQEKIPELRRRGLPVARVADAIPYCSSDWALLREEEKEKYAEMATEWRAAQGKDPGP [R57T] | -0.054 ± 0.098
25 | NRKASRNAYYFFVQEKIPELRRRGLPVARVADAIPYCSSDWALLREEEKEKYAEMAWEWRAAQGKDPGP [R57W] | -0.378 ± 0.094
26 | NRKASRNAYYFFVQEKIPELRRRGLPVARVADAIPYCSSDWALLREEEKEKYAEMAHEWRAAQGKDPGP [R57H] | 0.206 ± 0.14
27 | NRKASRNAYYFFVQEKIPELRRRGLPVARVADAIPYCSSDWALLREEEKEKYAEMAYEWRAAQGKDPGP [R57Y] | -0.236 ± 0.23
28 | NRKASRNAYYFFVQEKIPELRRRGLPVARVADAIPYCSSDWALLREEEKEKYAEMALEWRAAQGKDPGP [R57L] | 0.003 ± 0.073
29 | NRKASRNAYYFFVQEKIPELRRRGLPVARVADAIPYCSSDWALLREEEKEKYAEMAIEWRAAQGKDPGP [R57I] | -0.398 ± 0.42
30 | NRKASRNAYYFFVQEKIPELRRRGLPVARVADAIPYCSSDWALLREEEKEKYAEMAGEWRAAQGKDPGP [R57G] | -0.159 ± 0.068
31 | NRKASRNAYYFFVQEKIPELRRRGLPVARVADAIPYCSSDWALLREEEKEKYAEMANEWRAAQGKDPGP [R57N] | -0.135 ± 0.17
32 | NRKASRNAYYFFVQEKIPELRRRGLPVARVADAIPYCSSDWALLREEEKEKYAEMAKEWRAAQGKDPGP [R57K] | 0.001 ± 0.13
33 | NRKASRNAYYFFVQEKIPELRRRGLPVARVADAIPYCSSDWALLREEEKEKYAEMAREWRAAQKKDPGP [G64K] | 0.048 ± 0.071
34 | NRKASRNAYYFFVQEKIPELRRRGLPVARVADAIPYCSSDWALLREEEKEKYAEMAREWRAAQDKDPGP [G64D] | 0.207 ± 0.091
35 | NRKASRNAYYFFVQEKIPELRRRGLPVARVADAIPYCSSDWALLREEEKEKYAEMAREWRAAQPKDPGP [G64P] | -0.022 ± 0.077
36 | NRKASRNAYYFFVQEKIPELRRRGLPVARVADAIPYCSSDWALLREEEKEKYAEMAREWRAAQCKDPGP [G64C] | 0.082 ± 0.082
37 | NRKASRNAYYFFVQEKIPELRRRGLPVARVADAIPYCSSDWALLREEEKEKYAEMAREWRAAQRKDPGP [G64R] | 0.116 ± 0.047
38 | NRKASRNAYYFFVQEKIPELRRRGLPVARVADAIPYCSSDWALLREEEKEKYAEMAREWRAAQNKDPGP [G64N] | 0.214 ± 0.095
39 | NRKASRNAYYFFVQEKIPELRRRGLPVARVADAIPYCSSDWALLREEEKEKYAEMAREWRAAQVKDPGP [G64V] | 0.196 ± 0.046
